Literature values as cited in article PMC3416746.

What was measured:
[1] = target: mDia1 N-terminus (Mus musculus) (UniProt O08808)
[2] = target: mDia1 DID DID (Mus musculus) (UniProt O08808)

| Substance | Kd [1] [nM] | Kd [2] [nM] |
| --- | --- | --- |
| RhoA (from UniProt P61586) | 6 | – |
| mDia1 DAD DAD (from UniProt O08808) | – | 150 |
